The record followed here is PMC6222646, “HIV-1 Integrase-Targeted Short Peptides Derived from a Viral Protein R Sequence”.

One series concerns the target HIV-1 integrase (IN) (HIV-1 (strain ), UniProt P12497 1148-1435). Nature of the series: fluorescence anisotropy; IN-activity buffer: 50 mM MOPS pH 7.2, 7.5 mM MgCl2, 14 mM 2-mercaptoethanol; 10 nM DNA, +/- 400 nM IN; 5 min room temperature preincubation, anisotropy read every 30 s for 30 min. To be noted: protein: recombinant; tags: His6 or FLAG constructs described; chain copies: 4; label: AlexaFluor 488 at 5' end of 21T; blunt. Background: In fluorescence polarisation assays a small probe gives low polarisation when free and higher when bound to something large.

In series [1] the target is Vpr-derived peptide 1a, Vpr(69-75) (HIV-1, UniProt Q73369). Description: fluorescence anisotropy; 7.5 mM MgCl2; peptide up to 37 µM, no IN; IN-activity buffer: 50 mM MOPS pH 7.2, 7.5 mM MgCl2, 14 mM 2-mercaptoethanol; 10 nM DNA, +/- 400 nM IN; 5 min room temperature preincubation, anisotropy read every 30 s for 30 min. To be noted: label: AlexaFluor 488 at 5' end of 21T; blunt.
Sequence of Vpr-derived peptide 1a, Vpr(69-75) (Q73369 whole entry, looked up): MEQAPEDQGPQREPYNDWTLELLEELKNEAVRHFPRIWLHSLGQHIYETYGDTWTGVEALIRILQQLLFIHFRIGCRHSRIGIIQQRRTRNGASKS

B1: 21T/21B duplex (HIV-1 viral DNA end substrate) (dsDNA)
DNA 1: GTGTGGAAAATCTCTAGCAGT
DNA 2: ACTGCTAGAGATTTTCCACAC
B1: the binding result with HIV-1 integrase (IN) was “binds”; in series [1], “no binding”.
